Measured values reported in patent US20230312722A1 (NONA BIOSCIENCES SUZHOU, published 2023).

Assays:
Assay in all cases: ELISA, plate coated with 1 µg/mL B7 family protein
[1] = target: T1, CD275/ICOS ligand Protein, Human, Recombinant (Fc Tag) (Sino Biological 11559-H02H) (human, UniProt O75144 19-258)
T1 construct: Bought protein; also called B7H2
T1 sequence (looked up): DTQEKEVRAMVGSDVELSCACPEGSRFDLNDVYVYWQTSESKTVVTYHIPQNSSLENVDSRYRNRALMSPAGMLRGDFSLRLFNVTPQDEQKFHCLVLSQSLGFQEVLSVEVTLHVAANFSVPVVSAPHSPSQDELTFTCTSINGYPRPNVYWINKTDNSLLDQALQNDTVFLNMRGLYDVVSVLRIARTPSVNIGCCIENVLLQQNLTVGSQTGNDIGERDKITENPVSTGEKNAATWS
Experimental: (§1) The proteins of the B7 family (see Table 9-1 for details) were each diluted to 1 μg/mL with PBS, added to a 96-well plate (Corning, #9018) at 100 μL per well, and incubated overnight at 4° C. After the liquid was discarded, the plate was washed 3 times with PBST buffer (pH 7.4, containing 0.05% tween-20), and 250 μL of 2% BSA blocking buffer was added. The plate was incubated at 37° C. for 1 hour. The blocking buffer was discarded, and the plate was washed 3 times with PBST buffer (pH 7.4, containing 0.05% Tween-20). The test antigen-binding protein was diluted to 2 concentrations: 10 nM and 1 nM, and added at 100 μL per well. The plate was incubated at 37° C. for 1 hour. An isotype antibody was taken as a control. After the plate was washed 3 times with PBST buffer (pH 7.4, containing 0.05% Tween-20), the plate was added with a 5000-fold diluted goat anti-human F(ab′)₂ HRP secondary antibody (Jackson ImmunoResearch, 109-035-097), and incubated at 37° C. away from light for 1 hour. After the plate was washed 3 times with PBST buffer (pH 7.4, containing 0.05% Tween-20), TMB (Biopanda, #TMB-S-003) was added at 100 μL/well. The plate was left away from light at room temperature for about 30 minutes. The reactions were terminated by adding 50 μL of stop buffer (BBI life sciences, #E661006-0200) to each well, and the absorbance values at 450 nm (OD450) was measured using a microplate reader (PerkinElemer, #Enspire).

[2] = target: T2, Human B7-2/CD86 Protein, Fc Tag (Acro CD6-H5257) (human, UniProt P42081 26-247)
T2 construct: Bought protein
T2 sequence (looked up): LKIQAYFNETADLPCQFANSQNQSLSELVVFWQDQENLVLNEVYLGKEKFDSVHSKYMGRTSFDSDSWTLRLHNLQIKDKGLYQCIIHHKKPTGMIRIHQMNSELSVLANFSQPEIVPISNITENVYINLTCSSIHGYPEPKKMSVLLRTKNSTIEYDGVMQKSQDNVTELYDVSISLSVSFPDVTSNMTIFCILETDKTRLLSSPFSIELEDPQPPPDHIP
Experimental: as §1

[3] = target: T3, Recombinant human B7H7/HHLA2 Fc Chimera (R&D 8084-B7-050) (human, UniProt Q9UM44 23-344)
T3 construct: Bought protein
T3 sequence (looked up): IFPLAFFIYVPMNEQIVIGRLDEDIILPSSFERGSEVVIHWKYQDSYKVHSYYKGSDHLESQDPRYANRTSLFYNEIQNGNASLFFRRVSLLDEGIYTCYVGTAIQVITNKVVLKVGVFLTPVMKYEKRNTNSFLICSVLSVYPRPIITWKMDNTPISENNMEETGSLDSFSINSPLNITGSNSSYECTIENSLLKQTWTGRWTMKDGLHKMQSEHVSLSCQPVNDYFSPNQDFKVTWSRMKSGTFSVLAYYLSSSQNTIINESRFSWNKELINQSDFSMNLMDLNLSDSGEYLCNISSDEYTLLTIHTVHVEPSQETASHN
Experimental: as §1

[4] = target: T4, Recombinant human VISTA/B7H5/PD-1H Fc Chimera (R&D 7126-B7-050) (human, UniProt Q9H7M9 33-194)
T4 construct: Bought protein
T4 sequence (looked up): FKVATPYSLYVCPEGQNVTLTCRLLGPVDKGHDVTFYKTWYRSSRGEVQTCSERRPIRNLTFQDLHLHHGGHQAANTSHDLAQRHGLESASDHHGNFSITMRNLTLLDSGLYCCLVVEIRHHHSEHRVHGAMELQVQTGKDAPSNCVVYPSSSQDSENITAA
Experimental: as §1

[5] = target: T5, B7-H6/NCR3LG1 Protein, Human, Recombinant (Fc Tag) (Sino Biological 16140-H02H) (human, UniProt Q68D85 25-262)
T5 construct: Bought protein
T5 sequence (looked up): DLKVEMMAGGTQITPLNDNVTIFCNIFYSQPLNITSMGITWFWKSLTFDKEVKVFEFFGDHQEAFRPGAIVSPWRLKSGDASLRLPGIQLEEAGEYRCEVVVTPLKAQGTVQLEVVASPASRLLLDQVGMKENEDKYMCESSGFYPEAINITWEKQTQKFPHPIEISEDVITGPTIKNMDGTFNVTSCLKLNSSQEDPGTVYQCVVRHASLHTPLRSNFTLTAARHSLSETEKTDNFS
Experimental: as §1

[6] = target: T6, Human PD-L1/B7-H1 Protein, His Tag (Acro PD1-H5229) (human, UniProt Q9NZQ7 19-238)
T6 construct: Bought protein
Experimental: as §1

[7] = target: T7, Human B7-DC/PD-L2/CD273 Protein, Recombinant (Fc Tag) (Sino Biological H10292-H02H) (human, UniProt Q9BQ51 20-219)
T7 construct: Bought protein
T7 sequence (looked up): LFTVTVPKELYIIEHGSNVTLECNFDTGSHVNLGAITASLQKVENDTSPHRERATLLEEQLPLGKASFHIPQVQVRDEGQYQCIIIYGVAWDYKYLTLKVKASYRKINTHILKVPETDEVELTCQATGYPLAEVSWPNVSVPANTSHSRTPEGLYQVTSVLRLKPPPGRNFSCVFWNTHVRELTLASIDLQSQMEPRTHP
Experimental: as §1

[8] = target: T8, Human B7-1/CD80 Protein, Fc Tag (Acro B71-H5259) (human, UniProt P33681 35-242)
T8 construct: Bought protein
T8 sequence (looked up): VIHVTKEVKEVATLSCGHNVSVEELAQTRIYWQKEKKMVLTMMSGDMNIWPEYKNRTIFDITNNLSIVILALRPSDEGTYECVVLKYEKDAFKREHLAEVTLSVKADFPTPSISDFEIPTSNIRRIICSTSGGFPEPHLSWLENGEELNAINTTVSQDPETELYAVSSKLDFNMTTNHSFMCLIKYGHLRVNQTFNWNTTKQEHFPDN
Experimental: as §1

[9] = target: T9, B7-H3/CD276 Protein, Human, Recombinant (ECD, Fc Tag) (Sino Biological 11188-H02H) (human, UniProt Q5ZPR3 29-466)
T9 construct: extracellular domain; Bought protein
T9 sequence (looked up): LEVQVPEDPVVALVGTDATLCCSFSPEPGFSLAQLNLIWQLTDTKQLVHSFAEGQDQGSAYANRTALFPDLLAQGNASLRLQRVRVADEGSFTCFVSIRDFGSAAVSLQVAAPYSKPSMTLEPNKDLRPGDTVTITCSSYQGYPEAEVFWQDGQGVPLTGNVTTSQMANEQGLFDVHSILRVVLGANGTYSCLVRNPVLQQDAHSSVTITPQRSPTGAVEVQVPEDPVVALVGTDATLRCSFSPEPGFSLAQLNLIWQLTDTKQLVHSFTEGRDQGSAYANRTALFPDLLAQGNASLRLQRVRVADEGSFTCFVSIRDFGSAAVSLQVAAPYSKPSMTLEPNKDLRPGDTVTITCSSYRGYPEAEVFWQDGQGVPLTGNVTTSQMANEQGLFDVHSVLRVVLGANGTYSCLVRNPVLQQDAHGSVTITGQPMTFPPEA
Experimental: as §1

Measured: binding result

T6 sequence (Q9NZQ7 19-238 limits assumed): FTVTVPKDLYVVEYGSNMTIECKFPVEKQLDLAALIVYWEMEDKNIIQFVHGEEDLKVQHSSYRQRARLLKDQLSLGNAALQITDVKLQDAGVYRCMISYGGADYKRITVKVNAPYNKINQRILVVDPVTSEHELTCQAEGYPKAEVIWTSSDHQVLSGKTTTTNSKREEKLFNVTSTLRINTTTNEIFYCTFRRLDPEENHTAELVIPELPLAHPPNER

B1: PR002418 (antibody, human IgG1, kappa, V domains shown)
VH: QVQLVESGGGVVQPGRSLRLSCAASGFTFRSFGMHWVRQAPGKGLEWVAVISYDASNEYYADSVKGRFIISRDNSKDTLYLQMNSLRAGDTAVYYCAKGGGLRWYFAYWGQGTLVTVSS
VL: EIVMTQSPATLSVSPGERATLSCRASQSISSNLGWYQQKPGQAPRLLIYGASTRATGIPARFSGSGSGTEFTLTISSLQSEDFAVYYCQQYQSWPPLTFGGGTKVEIKR
notes: PTM variant/DE mutant of PR001476 (H: G55A; L: N92Q; Fc S239D, I332E), human IgG1
no binding (tested: 10 nM): all assays above
